Reference: publication PMC11314421

Molecular target: ΔNCL (DelNucleolin) (UniProt P19338 284-710, del1-283)
Assay: SPR

ΔNCL (DelNucleolin), sequence (P19338 284-710, stated change not applied): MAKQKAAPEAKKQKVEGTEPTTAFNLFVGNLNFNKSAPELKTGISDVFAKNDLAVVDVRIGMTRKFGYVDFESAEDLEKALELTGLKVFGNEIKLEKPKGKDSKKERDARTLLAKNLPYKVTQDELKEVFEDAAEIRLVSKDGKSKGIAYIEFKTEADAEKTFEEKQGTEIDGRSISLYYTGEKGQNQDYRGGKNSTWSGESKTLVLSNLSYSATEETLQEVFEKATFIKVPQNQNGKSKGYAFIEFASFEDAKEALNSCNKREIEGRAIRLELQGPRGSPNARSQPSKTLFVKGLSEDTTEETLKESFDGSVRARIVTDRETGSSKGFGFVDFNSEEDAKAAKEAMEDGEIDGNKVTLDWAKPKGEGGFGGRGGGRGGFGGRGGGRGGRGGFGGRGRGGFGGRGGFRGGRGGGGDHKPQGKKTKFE

Row | Binder | Kd
1 | Q2 (biotinylated, SPR) (structured_RNA) RNA: UUUUUCCUGGAAUUUGGAGGGAUGGGAGGAGGGGGUGGGGCUUACUUGUUGUAGCUU | 4 nM
2 | Q3 (biotinylated, SPR) (structured_RNA) RNA: CUCAAGCGGUGCUUGAAGGGGAGGGAAAGCGGGAAAGCGGGCAACCACUUUUCCCUAGC | 15 nM
